The source of these data is patent publication US20240270821A1, “GIP/GLP1/GCG TRI-RECEPTOR AGONISTS AND USES THEREOF” (priority 2023, published 2024).

Holding throughout (experiment): cell-based or functional assay
The target of test [1] is human glucagon receptor (human) (UniProt P47871).
The target of test [2] is human GLP-1R (SNAP-GLP-1R expressed in HEK293 cells) (human) (UniProt P43220).
Test [3] deals with T1, human GIP receptor (human) (UniProt P48546).
T1 sequence (looked up): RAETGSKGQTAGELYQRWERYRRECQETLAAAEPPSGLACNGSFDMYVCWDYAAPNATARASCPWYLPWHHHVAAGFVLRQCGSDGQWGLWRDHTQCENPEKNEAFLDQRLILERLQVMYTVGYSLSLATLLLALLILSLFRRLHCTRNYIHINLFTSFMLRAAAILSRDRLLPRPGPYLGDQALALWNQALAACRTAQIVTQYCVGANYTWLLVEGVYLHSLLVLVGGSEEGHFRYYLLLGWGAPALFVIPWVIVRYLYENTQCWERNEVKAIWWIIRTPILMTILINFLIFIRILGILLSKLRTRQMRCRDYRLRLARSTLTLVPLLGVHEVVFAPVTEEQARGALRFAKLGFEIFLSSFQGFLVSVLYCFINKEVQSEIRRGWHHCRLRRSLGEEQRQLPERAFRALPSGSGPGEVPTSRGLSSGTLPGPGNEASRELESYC

The target of a further test is hGLP-1R (Homo sapiens, UniProt P43220).

Positions count from the first letter of the chain named. Starred links: 1 amine or outer side, 2 acyl side, 3 side chain; linkers in the order of their positions; H or OH if unused. Non-standard residues stand in square brackets, D forms with d. Groups on a side chain read outwards from the residue. No end group written: not given here. *: point of attachment. C18 diacid = O=C(O)CCCCCCCCCCCCCCCCC(=O)*; γGlu = O=C(O)[C@H](CCC(=O)[*:2])N[*:1]; αMeL = CC(C)C[C@](C)(N)C(=O)O; Dap = NC[C@H](N)C(=O)O; AEEA = NCCOCCOCC(=O)O; Aib = CC(C)(N)C(=O)O

human glucagon receptor (human), sequence (P47871 26-477): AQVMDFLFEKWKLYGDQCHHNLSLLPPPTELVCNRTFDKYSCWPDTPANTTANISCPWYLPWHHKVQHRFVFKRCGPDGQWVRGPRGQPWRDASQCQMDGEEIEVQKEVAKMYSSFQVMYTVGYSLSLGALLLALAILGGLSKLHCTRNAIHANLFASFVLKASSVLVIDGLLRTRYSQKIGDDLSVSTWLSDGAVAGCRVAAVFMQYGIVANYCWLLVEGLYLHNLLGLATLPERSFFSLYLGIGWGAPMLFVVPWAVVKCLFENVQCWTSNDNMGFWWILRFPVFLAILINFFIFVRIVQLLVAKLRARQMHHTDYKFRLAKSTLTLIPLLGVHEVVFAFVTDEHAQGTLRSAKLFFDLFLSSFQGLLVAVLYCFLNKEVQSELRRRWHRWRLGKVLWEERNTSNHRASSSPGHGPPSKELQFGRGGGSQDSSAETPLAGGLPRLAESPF
hGLP-1R, sequence (P43220 24-463): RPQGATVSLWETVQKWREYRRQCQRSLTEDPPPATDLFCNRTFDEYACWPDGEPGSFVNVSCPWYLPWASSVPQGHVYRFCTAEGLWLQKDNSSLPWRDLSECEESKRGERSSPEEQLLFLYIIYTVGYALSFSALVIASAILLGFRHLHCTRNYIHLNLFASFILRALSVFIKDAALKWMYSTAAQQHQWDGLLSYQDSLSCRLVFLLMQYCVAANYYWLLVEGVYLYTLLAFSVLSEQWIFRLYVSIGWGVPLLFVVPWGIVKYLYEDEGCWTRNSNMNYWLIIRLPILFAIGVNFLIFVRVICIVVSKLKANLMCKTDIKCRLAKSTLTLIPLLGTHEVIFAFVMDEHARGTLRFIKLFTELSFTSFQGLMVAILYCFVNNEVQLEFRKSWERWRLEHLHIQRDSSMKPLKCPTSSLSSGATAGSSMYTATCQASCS
human GLP-1R (SNAP-GLP-1R expressed in HEK293 cells) (human), sequence (P43220 24-463): as above

B1: Example 362 (peptide)
chain: YXQGTFTSDYSQXLDKKAQXAFIEYLLEGGESSGAPPPSGS
modifications: synthetic construct; SITE 2: note = 2-Aminoisobutyric Acid; SITE 13: note = alpha-methyl-leucine; SITE 17: note = Lysine is chemically modified through conjugation of the epsilon-amino group of the Lysine side chain with (2-[2-(2-Amino-ethoxy)-ethoxy]-acetyl)-(gamma-Glu)-CO-(CH2) 16-CO2H; SITE 20: n
B1: the Relative cAMP EC50 in test [1] turned out to be 6.04 nM; in test [3], 0.262 nM; in the test with hGLP-1R, 1.77 nM. Besides, the cAMP Rel EC50, nM (1% HSA) in test [1] was 1450 nM; in test [3] it was 38.7 nM; in the test with hGLP-1R, 450 nM. Moreover, the GLP1R Internalization EC50 in test [2] stood at 22.8 nM. Also, the Internalization % TOP in test [2] was 77.5%.

B2: Example 361 (peptide)
chain: B1 chain with Q12R
modifications: synthetic construct; SITE 2: note = 2-Aminoisobutyric Acid; SITE 13: note = alpha-methyl-leucine; SITE 17: note = Lysine is chemically modified through conjugation of the epsilon-amino group of the Lysine side chain with (2-[2-(2-Amino-ethoxy)-ethoxy]-acetyl)-(gamma-Glu)-CO-(CH2) 16-CO2H; SITE 20: n
On to B2, for which the values for the cAMP Rel EC50, nM (1% HSA) (in test [1]; in test [3]; with hGLP-1R) were 987 nM, 46.3 nM and 376 nM, respectively. This molecule also returned a GLP1R Internalization EC50 in test [2] of 50.4 nM. Further, the Internalization % TOP in test [2] came to 73%.

B3: Example 359 (peptide)
chain: B1 chain with Q12X
modifications: synthetic construct; SITE 2: note = 2-Aminoisobutyric Acid; SITE 12: note = L-ornithine; SITE 13: note = alpha-methyl-leucine; SITE 17: note = Lysine is chemically modified through conjugation of the epsilon-amino group of the Lysine side chain with (2-[2-(2-Amino-ethoxy)-ethoxy]-acetyl)-(gamma-Glu)
For B3, in test [1], the Relative cAMP EC50 came to 2.1 nM and the cAMP Rel EC50, nM (1% HSA) came out at 957 nM. In test [2], the GLP1R Internalization EC50 was 49.6 nM and the Internalization % TOP came to 74.4%. Besides, in test [3], the Relative cAMP EC50 was found to be 0.281 nM and the cAMP Rel EC50, nM (1% HSA) stood at 103 nM. In the test with hGLP-1R, this molecule showed a Relative cAMP EC50 of 4.61 nM and a cAMP Rel EC50, nM (1% HSA) of 826 nM.

B4: Example 119 (peptide)
chain: B1 chain with Y10F, Q12X, Y25W, E31P, S41E
modifications: synthetic construct; SITE 2: note = 2-Aminoisobutyric Acid; SITE 12: note = L-ornithine; SITE 13: note = alpha-methyl-leucine; SITE 17: note = Lysine is chemically modified through conjugation of the epsilon-amino group of the Lysine side chain with (2-[2-(2-Amino-ethoxy)-ethoxy]-acetyl)-(gamma-Glu)
Regarding B4, in test [2], the GLP1R Internalization EC50 worked out at 73.5 nM and the Internalization % TOP came out at 43.4%.

B5: Example 107 (peptide)
chain: B1 chain with Y10F, Q12X, E31P, S41E
modifications: synthetic construct; SITE 2: note = 2-Aminoisobutyric Acid; SITE 12: note = L-ornithine; SITE 13: note = alpha-methyl-leucine; SITE 17: note = Lysine is chemically modified through conjugation of the epsilon-amino group of the Lysine side chain with (2-[2-(2-Amino-ethoxy)-ethoxy]-acetyl)2-(gamma-Glu)
Take B5: in test [1], the Relative cAMP EC50 stood at 10.8 nM and the cAMP Rel EC50, nM (in the presence of 1% HSA) was 1690 nM. In test [2], this molecule gave a GLP1R Internalization EC50 of 150 nM and an Internalization % TOP of 45.1%. Moreover, in test [3], the Relative cAMP EC50 was determined as 0.426 nM and the cAMP Rel EC50, nM (in the presence of 1% HSA) came to 61.3 nM. Besides, in the test with hGLP-1R, the Relative cAMP EC50 is 8.5 nM and the cAMP Rel EC50, nM (in the presence of 1% HSA) was 1110 nM.

B6: Example 1026 (peptide)
chain: YXQGTFTSDXSQXLDXKAQXQFIEXLIEGGPSSGEPPPSGSEE
modifications: non-natural residues, lipidated Lys, C-terminal amide; synthetic construct; SITE 2: note = 2-Aminoisobutyric Acid; SITE 10: note = 3-(4-Pyridyl)-L-alanine; SITE 13: note = alpha-methyl-leucine; SITE 16: note = L-ornithine; SITE 17: note = Lysine is chemically modified through conjugation of the epsilon-amino group of the Lysine side chain with (gamma-Gl)
With B6, the results for the Relative cAMP EC50 (in test [1]; in test [3]; in the test with hGLP-1R) were 6.32 nM, 0.308 nM and 1.77 nM, respectively. For the same molecule, the cAMP Rel EC50, nM (1% HSA) in test [1] was found to be 2080 nM; in test [3] it was 61.3 nM; with hGLP-1R it was 299 nM. Also, in test [2], the GLP1R Internalization EC50 stood at 47.4 nM. In test [2], the Internalization % TOP came to 80%.

B7: Example 686 (peptide)
chain: YXQGTXTSDXSIXLDXKAQXXFIEXLIEGGPSSGEPPPETE
modifications: synthetic construct; SITE 2: note = 2-Aminoisobutyric Acid; SITE 6: note = alpha-methyl-2-fluoro-L-phenylalanine; SITE 10: note = 3-(4-Pyridyl)-L-alanine; SITE 13: note = alpha-methyl-leucine; SITE 16: note = L-ornithine; SITE 17: note = Lysine is chemically modified through conjugation of the epsil
In the case of B7, the cAMP Rel EC50 (1% HSA) in test [1] came out at 169 nM; in test [3], 0.542 nM; with hGLP-1R, 19.1 nM. The GLP1R Internalization EC50 in test [2] is 33.2 nM. This molecule also yielded an Internalization % TOP in test [2] of 101%.

B8: Example 712 (peptide)
chain: YXQGTXTSDXXIXLDXKAQXEFIEXLIEGGPSSGAPPPSGSE
modifications: synthetic construct; SITE 2: note = 2-Aminoisobutyric Acid; SITE 6: note = alpha-methyl-2-fluoro-L-phenylalanine; SITE 10: note = 3-(4-Pyridyl)-L-alanine; SITE 11: note = alpha-methyl-L-serine; SITE 13: note = alpha-methyl-leucine; SITE 16: note = L-ornithine; SITE 17: note = Lysine is chemically mo
With B8, in test [2], the GLP1R Internalization EC50 came to 35.3 nM and the Internalization % TOP worked out at 109%.

B9: Example 360 (peptide)
chain: Y[Aib]QGTFTSDYS[Dap][αMeL]LDKK([AEEA-γGlu-C18 diacid])AQ[Aib]AFIEYLLEGGESSGAPPPSGS-NH2
In test [1], B9 gave a Relative cAMP EC50 of 5.28 nM and a cAMP Rel EC50, nM (1% HSA) of 1470 nM. Also, in test [2], the GLP1R Internalization EC50 amounted to 214 nM and the Internalization % TOP amounted to 66.1%. In test [3], this molecule registered a Relative cAMP EC50 of 0.45 nM and a cAMP Rel EC50, nM (1% HSA) of 78.3 nM. In the test with hGLP-1R, this molecule returned a Relative cAMP EC50 of 5.86 nM and a cAMP Rel EC50, nM (1% HSA) of 989 nM.
